The values that follow come from US20220105150A1, “AMPHIPATHIC ALPHA-HELICAL ANTIMICROBIAL PEPTIDES TREAT INFECTIONS BY GRAM-NEGATIVE PATHOGENS” (priority 2019, published 2022).

Square brackets hold non-standard residues; d marks the D form. dOrn = NCCC[C@@H](N)C(=O)O; Dab = NCC[C@H](N)C(=O)O; Dap = NC[C@H](N)C(=O)O

Data set [1] has as its system A. baumannii strains from JMI Laboratories. The settings on record: 20 A. baumannii isolates from JMI Laboratories; cited from earlier work.
The test system of data set [2] is Acinetobacter baumannii strains resistant to Polymyxin B and Colistin. The settings on record: results provided by MERCK, cited from earlier work.
Data set [3] deals with the molecule itself. Put plainly: RP-HPLC temperature profiling, self-association (dimerization/oligomerization) against random coil control RC.
In a further data set the target is serum proteins. The data set is described as follows: cell-based or functional assay.

Turning to Colistin, the “number of resistant isolates out of the number of isolates screened” value (from here on “number”) in data set [1] is 10/20. For the same molecule, the MICGM in data set [2] (geometric mean over seven strains) was above 28 µM. Further, the “MIC MB9941” value in data set [2] (strain MB9941) was above 28 µM. Further, the “MIC MB9949” value in data set [2] (strain MB9949) is above 28 µM. Moreover, the “MIC MB9951” value in data set [2] (strain MB9951) was above 28 µM. Moreover, the “MIC MB9952” value in data set [2] (strain MB9952) was above 28 µM. Also, the “MIC MB9953” value in data set [2] (strain MB9953) is above 28 µM. The “MIC MB9955” value in data set [2] (strain MB9955) was above 28 µM. Also, the “MIC MB9963” value in data set [2] (strain MB9963) was above 28 µM.
For the molecule Ampicillin-sulbactam, the “number” value in data set [1] is on record as 17/20.
As for Gentamicin, in data set [1], the “number” value is 18/20.

B1: D85(K13A/K16A)-(Lys1-6Orn-1) (peptide)
peptide: Ac-[dK][dL][dOrn][dS][dL][dL][dOrn][dT][dL][dS][dOrn][dA][dA][dA][dA][dA][dL][dOrn][dT][dL][dL][dOrn][dA][dL][dS][dOrn]-NH2
SMILES: CC(=O)N[C@H](CCCCN)C(=O)N[C@H](CC(C)C)C(=O)N[C@H](CCCN)C(=O)N[C@H](CO)C(=O)N[C@H](CC(C)C)C(=O)N[C@H](CC(C)C)C(=O)N[C@H](CCCN)C(=O)N[C@@H](C(=O)N[C@H](CC(C)C)C(=O)N[C@H](CO)C(=O)N[C@H](CCCN)C(=O)N[C@H](C)C(=O)N[C@H](C)C(=O)N[C@H](C)C(=O)N[C@H](C)C(=O)N[C@H](C)C(=O)N[C@H](CC(C)C)C(=O)N[C@H](CCCN)C(=O)N[C@@H](C(=O)N[C@H](CC(C)C)C(=O)N[C@H](CC(C)C)C(=O)N[C@H](CCCN)C(=O)N[C@H](C)C(=O)N[C@H](CC(C)C)C(=O)N[C@H](CO)C(=O)N[C@H](CCCN)C(N)=O)[C@H](C)O)[C@H](C)O
notes: Control AMP without specificity determinants (Ala13/Ala16); also called D85(A13/A16-6Orn-1); D85(K13A/K16A-6 Orn-1)
For the molecule B1, the “PA (self-association parameter)” value in data set [3] was 28 min.

B2: D105(Lys1-6Dap-1) (peptide)
peptide: Ac-[dK][dL][Dap][dS][dL][dL][Dap][dT][dL][dS][Dap][dA][dK][dA][dA][dK][dL][Dap][dT][dL][dL][Dap][dA][dL][dS][Dap]-NH2
SMILES: CC(=O)N[C@H](CCCCN)C(=O)N[C@H](CC(C)C)C(=O)N[C@@H](CN)C(=O)N[C@H](CO)C(=O)N[C@H](CC(C)C)C(=O)N[C@H](CC(C)C)C(=O)N[C@@H](CN)C(=O)N[C@@H](C(=O)N[C@H](CC(C)C)C(=O)N[C@H](CO)C(=O)N[C@@H](CN)C(=O)N[C@H](C)C(=O)N[C@H](CCCCN)C(=O)N[C@H](C)C(=O)N[C@H](C)C(=O)N[C@H](CCCCN)C(=O)N[C@H](CC(C)C)C(=O)N[C@@H](CN)C(=O)N[C@@H](C(=O)N[C@H](CC(C)C)C(=O)N[C@H](CC(C)C)C(=O)N[C@@H](CN)C(=O)N[C@H](C)C(=O)N[C@H](CC(C)C)C(=O)N[C@H](CO)C(=O)N[C@@H](CN)C(N)=O)[C@H](C)O)[C@H](C)O
notes: Designed 26-residue AMP; Lys13/Lys16 specificity determinants; also called D105(6Dap-1); D105-6 Dap-1
Turning to B2, the “PA (self-association parameter)” value in data set [3] was 3.7 min. Moreover, in the data set with serum proteins, the MIC (µM) against A. baumannii strain 649 in 25% human serum (no serum: 0.8) was 3 µM and the fold change of MIC in 25% human sera against no serum was 4 fold.

B3: D85(Lys1-6Orn-1) (peptide)
peptide: Ac-[dK][dL][dOrn][dS][dL][dL][dOrn][dT][dL][dS][dOrn][dA][dK][dA][dA][dK][dL][dOrn][dT][dL][dL][dOrn][dA][dL][dS][dOrn]-NH2
SMILES: CC(=O)N[C@H](CCCCN)C(=O)N[C@H](CC(C)C)C(=O)N[C@H](CCCN)C(=O)N[C@H](CO)C(=O)N[C@H](CC(C)C)C(=O)N[C@H](CC(C)C)C(=O)N[C@H](CCCN)C(=O)N[C@@H](C(=O)N[C@H](CC(C)C)C(=O)N[C@H](CO)C(=O)N[C@H](CCCN)C(=O)N[C@H](C)C(=O)N[C@H](CCCCN)C(=O)N[C@H](C)C(=O)N[C@H](C)C(=O)N[C@H](CCCCN)C(=O)N[C@H](CC(C)C)C(=O)N[C@H](CCCN)C(=O)N[C@@H](C(=O)N[C@H](CC(C)C)C(=O)N[C@H](CC(C)C)C(=O)N[C@H](CCCN)C(=O)N[C@H](C)C(=O)N[C@H](CC(C)C)C(=O)N[C@H](CO)C(=O)N[C@H](CCCN)C(N)=O)[C@H](C)O)[C@H](C)O
notes: Designed 26-residue AMP; also called D85(6Orn-1)
On to B3, for which the “PA (self-association parameter)” value in data set [3] was 4.1 min. The MIC (µM) against A. baumannii strain 649 in 25% human serum (no serum: 0.4) with serum proteins stood at 0.2 µM.

B4: D105(K13A/K16A)-(Lys1-6Dap-1) (peptide)
peptide: Ac-[dK][dL][Dap][dS][dL][dL][Dap][dT][dL][dS][Dap][dA][dA][dA][dA][dA][dL][Dap][dT][dL][dL][Dap][dA][dL][dS][Dap]-NH2
SMILES: CC(=O)N[C@H](CCCCN)C(=O)N[C@H](CC(C)C)C(=O)N[C@@H](CN)C(=O)N[C@H](CO)C(=O)N[C@H](CC(C)C)C(=O)N[C@H](CC(C)C)C(=O)N[C@@H](CN)C(=O)N[C@@H](C(=O)N[C@H](CC(C)C)C(=O)N[C@H](CO)C(=O)N[C@@H](CN)C(=O)N[C@H](C)C(=O)N[C@H](C)C(=O)N[C@H](C)C(=O)N[C@H](C)C(=O)N[C@H](C)C(=O)N[C@H](CC(C)C)C(=O)N[C@@H](CN)C(=O)N[C@@H](C(=O)N[C@H](CC(C)C)C(=O)N[C@H](CC(C)C)C(=O)N[C@@H](CN)C(=O)N[C@H](C)C(=O)N[C@H](CC(C)C)C(=O)N[C@H](CO)C(=O)N[C@@H](CN)C(N)=O)[C@H](C)O)[C@H](C)O
notes: Control AMP without specificity determinants (Ala13/Ala16); also called D105(A13/A16-6Dap-1); D105(K13A/K16A-6 Dap-1)
On to B4, for which, in data set [3], the “PA (self-association parameter)” value was 18 min. Besides, in the data set with serum proteins, the MIC (µM) against A. baumannii strain 649 in 25% human serum (no serum: 0.8) worked out at 12.5 µM and the fold loss of antimicrobial activity in 25% human sera was 15 fold.

B5: D84(Lys1-6Lys-1) (peptide)
peptide: Ac-[dK][dL][dK][dS][dL][dL][dK][dT][dL][dS][dK][dA][dK][dA][dA][dK][dL][dK][dT][dL][dL][dK][dA][dL][dS][dK]-NH2
SMILES: CC(=O)N[C@H](CCCCN)C(=O)N[C@H](CC(C)C)C(=O)N[C@H](CCCCN)C(=O)N[C@H](CO)C(=O)N[C@H](CC(C)C)C(=O)N[C@H](CC(C)C)C(=O)N[C@H](CCCCN)C(=O)N[C@@H](C(=O)N[C@H](CC(C)C)C(=O)N[C@H](CO)C(=O)N[C@H](CCCCN)C(=O)N[C@H](C)C(=O)N[C@H](CCCCN)C(=O)N[C@H](C)C(=O)N[C@H](C)C(=O)N[C@H](CCCCN)C(=O)N[C@H](CC(C)C)C(=O)N[C@H](CCCCN)C(=O)N[C@@H](C(=O)N[C@H](CC(C)C)C(=O)N[C@H](CC(C)C)C(=O)N[C@H](CCCCN)C(=O)N[C@H](C)C(=O)N[C@H](CC(C)C)C(=O)N[C@H](CO)C(=O)N[C@H](CCCCN)C(N)=O)[C@H](C)O)[C@H](C)O
notes: Designed 26-residue AMP; Lys at 3, 7, 11, 18, 22, 26; Lys13/Lys16 specificity determinants; also called D84(6 Lys-1); D84-6 Lys-1
B5: the “PA (self-association parameter)” value in data set [3] turned out to be 5.9 min. Moreover, the MIC (µM) against A. baumannii strain 649 in 25% human serum (no serum: 0.3) with serum proteins was determined as 0.3 µM.

B6: D86(Lys1-6Dab-1) (peptide)
peptide: Ac-[dK][dL][Dab][dS][dL][dL][Dab][dT][dL][dS][Dab][dA][dK][dA][dA][dK][dL][Dab][dT][dL][dL][Dab][dA][dL][dS][Dab]-NH2
modifications: not fully specified
notes: Designed 26-residue AMP; Lys13/Lys16 specificity determinants; also called D86(6 Dab-1); D86-6 Dab-1
In the case of B6, the “PA (self-association parameter)” value in data set [3] was 0 min. In the data set with serum proteins, this molecule registered an MIC (µM) against A. baumannii strain 649 in 25% human serum (no serum: 0.7) of 0.2 µM.

B7: D87(Lys1-6Arg-1) (peptide)
peptide: Ac-[dK][dL][dR][dS][dL][dL][dR][dT][dL][dS][dR][dA][dK][dA][dA][dK][dL][dR][dT][dL][dL][dR][dA][dL][dS][dR]-NH2
SMILES: CC(=O)N[C@H](CCCCN)C(=O)N[C@H](CC(C)C)C(=O)N[C@H](CCCNC(=N)N)C(=O)N[C@H](CO)C(=O)N[C@H](CC(C)C)C(=O)N[C@H](CC(C)C)C(=O)N[C@H](CCCNC(=N)N)C(=O)N[C@@H](C(=O)N[C@H](CC(C)C)C(=O)N[C@H](CO)C(=O)N[C@H](CCCNC(=N)N)C(=O)N[C@H](C)C(=O)N[C@H](CCCCN)C(=O)N[C@H](C)C(=O)N[C@H](C)C(=O)N[C@H](CCCCN)C(=O)N[C@H](CC(C)C)C(=O)N[C@H](CCCNC(=N)N)C(=O)N[C@@H](C(=O)N[C@H](CC(C)C)C(=O)N[C@H](CC(C)C)C(=O)N[C@H](CCCNC(=N)N)C(=O)N[C@H](C)C(=O)N[C@H](CC(C)C)C(=O)N[C@H](CO)C(=O)N[C@H](CCCNC(=N)N)C(N)=O)[C@H](C)O)[C@H](C)O
notes: De novo designed 26-residue amphipathic alpha-helical antimicrobial peptide; Arg at 3, 7, 11, 18, 22, 26; Lys13/Lys16 specificity determinants; also called D87(6Arg-1); D87-6 Arg-1
For the molecule B7, in data set [3], the “PA (self-association parameter)” value stood at 5.9 min. This molecule registered an MIC (µM) against A. baumannii strain 649 in 25% human serum (no serum: 0.7) in the data set with serum proteins of 1.3 µM.

B8: D86(K13A/K16A)-(Lys1-6Dab-1) (peptide)
peptide: Ac-[dK][dL][Dab][dS][dL][dL][Dab][dT][dL][dS][Dab][dA][dA][dA][dA][dA][dL][Dab][dT][dL][dL][Dab][dA][dL][dS][Dab]-NH2
SMILES: CC(=O)N[C@H](CCCCN)C(=O)N[C@H](CC(C)C)C(=O)N[C@@H](CCN)C(=O)N[C@H](CO)C(=O)N[C@H](CC(C)C)C(=O)N[C@H](CC(C)C)C(=O)N[C@@H](CCN)C(=O)N[C@@H](C(=O)N[C@H](CC(C)C)C(=O)N[C@H](CO)C(=O)N[C@@H](CCN)C(=O)N[C@H](C)C(=O)N[C@H](C)C(=O)N[C@H](C)C(=O)N[C@H](C)C(=O)N[C@H](C)C(=O)N[C@H](CC(C)C)C(=O)N[C@@H](CCN)C(=O)N[C@@H](C(=O)N[C@H](CC(C)C)C(=O)N[C@H](CC(C)C)C(=O)N[C@@H](CCN)C(=O)N[C@H](C)C(=O)N[C@H](CC(C)C)C(=O)N[C@H](CO)C(=O)N[C@@H](CCN)C(N)=O)[C@H](C)O)[C@H](C)O
notes: Control AMP without specificity determinants (Ala13/Ala16); also called D86(A13/A16-6Dab-1); D86(K13A/K16A-6 Dab-1)
As for B8, the “PA (self-association parameter)” value in data set [3] came out at 12.5 min. In the data set with serum proteins, this molecule displayed an MIC (µM) against A. baumannii strain 649 in 25% human serum (no serum: 0.8) of 3 µM and a fold loss of antimicrobial activity in 25% human sera of 4 fold.
